Laboratory results taken from PMC3920478, “Small molecule-mediated refolding and activation of myosin motor function” (eLife, 2014).
“Also recorded” adds a separate entry of the source.

Key:
[1] = target: T1, β-cardiac myosin S1 (Sus scrofa, UniProt P79293); test: Microscale thermophoresis direct binding; design: species or system Porcine
T1 construct: S1 and HMM fragments were produced by proteolytic digestion of the full-length proteins with 0.05 mg/ml papain; from tissue; host or cells: porcine cardiac muscle
T1 sequence (P79293 1-843 limits assumed): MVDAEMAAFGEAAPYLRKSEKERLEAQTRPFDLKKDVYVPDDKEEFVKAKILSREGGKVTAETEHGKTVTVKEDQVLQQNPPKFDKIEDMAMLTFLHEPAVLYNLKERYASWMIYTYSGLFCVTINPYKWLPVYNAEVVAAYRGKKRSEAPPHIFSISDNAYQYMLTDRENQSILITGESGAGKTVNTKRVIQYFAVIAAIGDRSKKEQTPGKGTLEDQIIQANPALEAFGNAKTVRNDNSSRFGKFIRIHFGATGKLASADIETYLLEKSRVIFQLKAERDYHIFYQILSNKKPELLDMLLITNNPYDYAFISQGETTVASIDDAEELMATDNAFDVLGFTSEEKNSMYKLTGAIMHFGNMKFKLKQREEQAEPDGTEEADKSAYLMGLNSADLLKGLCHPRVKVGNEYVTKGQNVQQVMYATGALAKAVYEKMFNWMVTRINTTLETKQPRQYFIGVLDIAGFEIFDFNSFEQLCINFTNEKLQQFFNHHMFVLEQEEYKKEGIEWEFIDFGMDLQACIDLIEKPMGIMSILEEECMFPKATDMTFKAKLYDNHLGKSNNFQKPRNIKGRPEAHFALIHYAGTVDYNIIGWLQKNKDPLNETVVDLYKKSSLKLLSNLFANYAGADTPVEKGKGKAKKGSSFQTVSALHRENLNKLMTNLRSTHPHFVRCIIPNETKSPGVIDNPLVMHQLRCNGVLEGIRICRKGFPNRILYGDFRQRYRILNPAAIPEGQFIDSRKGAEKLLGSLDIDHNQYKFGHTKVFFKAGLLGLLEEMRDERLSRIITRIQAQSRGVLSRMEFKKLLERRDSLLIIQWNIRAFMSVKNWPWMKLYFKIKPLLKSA
Description: Proteolytic fragments were further purified by actin-coprecipitation.

[2] = target: β-cardiac myosin (Sus scrofa, UniProt P79293); test: Steady-state basal and actin-activated Mg2+-ATPase (NADH-coupled assay); assay type: biochemical, Porcine; conditions: β-cardiac myosin S1, dose-dependence
Chain of β-cardiac myosin (P79293 1-810 limits assumed): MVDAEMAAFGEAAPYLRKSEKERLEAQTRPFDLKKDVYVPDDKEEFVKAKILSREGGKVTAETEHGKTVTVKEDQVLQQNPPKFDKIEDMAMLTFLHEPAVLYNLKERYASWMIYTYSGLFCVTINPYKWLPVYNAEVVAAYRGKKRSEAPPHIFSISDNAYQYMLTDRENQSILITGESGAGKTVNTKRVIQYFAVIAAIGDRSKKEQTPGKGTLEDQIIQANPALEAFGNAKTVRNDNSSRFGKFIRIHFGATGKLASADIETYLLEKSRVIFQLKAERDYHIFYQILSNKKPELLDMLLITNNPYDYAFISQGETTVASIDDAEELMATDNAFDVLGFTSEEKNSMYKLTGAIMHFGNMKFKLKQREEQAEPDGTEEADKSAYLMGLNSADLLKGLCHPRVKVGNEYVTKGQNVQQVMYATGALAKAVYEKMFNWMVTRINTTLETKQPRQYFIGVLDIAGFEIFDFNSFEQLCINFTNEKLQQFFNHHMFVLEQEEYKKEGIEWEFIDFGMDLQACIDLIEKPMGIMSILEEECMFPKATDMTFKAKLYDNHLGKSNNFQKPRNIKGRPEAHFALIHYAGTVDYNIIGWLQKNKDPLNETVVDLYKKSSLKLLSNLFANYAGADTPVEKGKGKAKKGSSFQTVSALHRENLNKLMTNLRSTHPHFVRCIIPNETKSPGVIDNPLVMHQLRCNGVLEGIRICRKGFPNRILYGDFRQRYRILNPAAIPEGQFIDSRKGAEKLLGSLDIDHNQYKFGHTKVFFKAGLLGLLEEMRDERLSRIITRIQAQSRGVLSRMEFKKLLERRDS
Procedure: Rabbit fast skeletal muscle heavy meromyosin (HMM) was prepared as described by [Margossian and Lowey (1982)]. Porcine β-cardiac myosin was prepared essentially as described by [Pant et al. (2009)] and [Jacques et al. (2008)] and further purified by gel filtration. S1 and HMM fragments were produced by proteolytic digestion of the full-length proteins with 0.05 mg/ml papain (10 min, 25°C) for S1 and with 0.1 mg/ml TLCK-treated α-chymotrypsin (15 min, 25°C) for HMM. Reactions were stopped with specific protease inhibitors for papain (10 µM E−64) and chymotrypsin (10 µM chymostatin, 1 mM benzamidine). Proteolytic fragments were further purified by actin-coprecipitation. Pellets were washed twice and myosin was extracted from the pellets using ATP containing buffer. Gel filtration was used to further increase purity of myosin S1 and HMM fragments. His-tagged motor domain constructs of Dd myosin-2, Dd myosin-1B, Dd myosin-1C, Dd myosin-1D, Dd myosin-1E, Dd myosin-5b fused to two Dd α-actinin repeats substituting the light-chain binding domains ([Anson et al., 1996]) were expressed in Dd AX3-ORF + cells and purified by Ni^2+-chelate affinity chromatography ([Manstein and Hunt, 1995]).
Basal and actin-activated Mg^2+-ATPase activities were measured using the NADH-coupled assay described previously ([Furch et al., 1998]) adapted for higher throughput screens for a temperature controlled plate reader (Multiscan FC, Thermo Scientific, Waltham, MA) at 25°C. […] Control measurements were carried out in the absence of drug, as well as in the presence of according concentrations of the non-binding (−)-enantiomer EMD 57439 to account for possible absorption effects. […] Data points are mean values from 3 to 5 independent experiments. Error bars indicate standard deviations.

[3] = test system: phosphodiesterase III; design: method as in Gambassi et al., 1993; conditions: ref Gambassi et al., 1993; cited from earlier work
[4] = target: F-actin (UniProt P68135)

K M(Actin): F-actin concentration for half-maximal activation of the steady-state ATPase, control without EMD 57033 [4] [µM]	K M(Actin): F-actin concentration for half-maximal activation of the steady-state ATPase, with 25 µM EMD 57033 [4] [µM]	kcat/K M(Actin) of the actin-activated ATPase, calculated ratio, control without EMD 57033 [4] [M⁻¹ s⁻¹]	kcat/K M(Actin) of the actin-activated ATPase, calculated ratio, with 25 µM EMD 57033 [4] [µM^v1 s^−1]	Molecule	Binding (in words) [1]	Activation of the actin-activated ATPase (in words) [2]	Phosphodiesterase III inhibition [3]
–	–	–	–	COc1ccc(C(=O)N2CCCc3cc(C4=NNC(=O)SC4C)ccc32)cc1OC (stereo not shown) [EMD 57439]	Neither binding nor activation was observed	Neither binding nor activation was observed; also recorded: no activation	potent phosphodiesterase III inhibitor
36.8	3.6	3260	0.0528	β-cardiac myosin (from UniProt P79293 1-1935) (natural protein)	–	–	–
